Laboratory results taken from article PMC3974974.
pKd: −log10 of the molar value.

Tests used:
Test in all cases: SPR; SIRPα variants immobilized via a biotin tag on a streptavidin-coated CM5 chip, BIAcore 3000, 37 °C; dilutions of soluble monomeric CD47 (0.05 to 25.7 μM) injected; KD from equilibrium binding; purification of the variants from 293T not told
[1] = target: SIRPα variant v7, three Ig superfamily domains linked to rat CD4d3 and -4 and a biotinylation sequence (human)
[2] = target: SIRPα variant v2, three Ig superfamily domains linked to rat CD4d3 and -4 and a biotinylation sequence (human)
[3] = target: SIRPα variant v10, three Ig superfamily domains linked to rat CD4d3 and -4 and a biotinylation sequence (human)
[4] = target: SIRPα variant v1, three Ig superfamily domains linked to rat CD4d3 and -4 and a biotinylation sequence (human)
[5] = target: SIRPα variant v5, three Ig superfamily domains linked to rat CD4d3 and -4 and a biotinylation sequence (human)
Sequence of SIRPα variant v5, three Ig superfamily domains linked to rat CD4d3 and -4 and a biotinylation sequence (human) (P78324 31-504, stated change not applied): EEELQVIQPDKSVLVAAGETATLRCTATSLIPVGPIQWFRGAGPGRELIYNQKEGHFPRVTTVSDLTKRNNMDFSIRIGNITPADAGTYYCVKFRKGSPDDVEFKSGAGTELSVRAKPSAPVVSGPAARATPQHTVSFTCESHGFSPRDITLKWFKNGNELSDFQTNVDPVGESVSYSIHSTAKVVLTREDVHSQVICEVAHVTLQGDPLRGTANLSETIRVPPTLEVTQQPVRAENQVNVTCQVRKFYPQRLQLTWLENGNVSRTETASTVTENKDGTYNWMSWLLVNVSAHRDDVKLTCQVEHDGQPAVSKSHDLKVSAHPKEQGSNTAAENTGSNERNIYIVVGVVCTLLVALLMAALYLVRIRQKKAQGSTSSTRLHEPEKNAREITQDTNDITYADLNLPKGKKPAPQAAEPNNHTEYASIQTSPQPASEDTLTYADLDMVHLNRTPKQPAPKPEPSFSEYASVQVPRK

Sequence of SIRPα variant v7, three Ig superfamily domains linked to rat CD4d3 and -4 and a biotinylation sequence (human) (P78324 31-504, stated change not applied): as above

pKd [1]: 6.19
pKd [2]: 6.19
pKd [3]: 6.17
pKd [4]: 6.13
pKd [5]: 6.11
Substance: Recombinant CD47 Ig superfamily domain (from UniProt Q08722 19-136) (domain or fragment)
